PMC5773547

Target: His-tagged recombinant CHIKV nsP2-NT (1-454) (Chikungunya virus strain S 27)

“His-tagged recombinant CHIKV nsP1-WT (1-535) (from UniProt Q8JUX6 1-535) (enzyme)” was tested. Which ATPase activity of nsP2-NT (0.2 μg) with nsP1-WT (0.6 μg) against nsP2-NT alone, TLC assay with [γ-P32] ATP, release of free Pi did it give?
Its ATPase activity of nsP2-NT (0.2 μg) with nsP1-WT (0.6 μg) against nsP2-NT alone, TLC assay with [γ-P32] ATP, release of free Pi is 1.5 fold.

What about the ATPase activity of nsP2-NT (1 μg) with nsP1-WT (1 μg), colorimetric malachite green assay, Pi release (approximately 86 μM for nsP2-NT alone) of the same substance?
Its ATPase activity of nsP2-NT (1 μg) with nsP1-WT (1 μg), colorimetric malachite green assay, Pi release (approximately 86 μM for nsP2-NT alone) is 174 µM.
